B1: TRIM63 (parent)
chain: QEKKLSFIEALIQQYQEQLDKSTK

Variants of: B1
Assay: protein stability index of a GFP-peptide fusion (GPS, HEK-293T) (PSI 1-6); higher = more stable
Details: c terminus: a fixed tail appended
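Also: lentivirally expressed fusions sorted by FACS into six bins by GFP to DsRed ratio, PSI derived from sequencing read proportions per bin multiplied by bin number.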

Row | Variant | protein stability index
1 | QEKKLSFIEALIQQYQEQLDKFTK | 3.09
2 | QEKKLSFIEALIQQYQEQLDKVTK | 2.45
3 | QEKKLSFIEALIQQYQEQLDKATK | 2.23
4 | QEKKLSFIEALIQQYQEQLDKETK | 3.21
5 | QEKKLSFIEALIQQYQEQLDKNTK | 2.89
6 | QEKKLSFIEALIQQYQEQLDKHTK | 2.7
7 | QEKKLSFIEALIQQYQEQLDKCTK | 2.26
8 | QEKKLSFIEALIQQYQEQLDKDTK | 3.1
9 | QEKKLSFIEALIQQYQEQLDKITK | 2.74
10 | QEKKLSFIEALIQQYQEQLDKKTK | 2.52
11 | QEKKLSFIEALIQQYQEQLDKRTK | 1.98
12 | QEKKLSFIEALIQQYQEQLDKWTK | 1.92
13 | QEKKLSFIEALIQQYQEQLDKTTK | 2.75
14 | QEKKLSFIEALIQQYQEQLDKQTK | 2.43
15 | QEKKLSFIEALIQQYQEQLDKGTK | 2.26
16 | QEKKLSFIEALIQQYQEQLDKPTK | 3.1
17 | QEKKLSFIEALIQQYQEHLDKSTK | 1.79
18 | QEKKLSFIEALIQQYQESLDKSTK | 2.71
19 | QEKKLSFIEALIQQYQEVLDKSTK | 2.3
20 | QEKKLSFIEALIQQYQELLDKSTK | 2.25
21 | QEKKLSFIEALIQQYQEPLDKSTK | 3.31
22 | QEKKLSFIEALIQQYQEMLDKSTK | 1.81
23 | QEKKLSFIEALIQQYQEKLDKSTK | 2.58
24 | QEKKLSFIEALIQQYQEYLDKSTK | 2.49

Row | Variant | protein stability index
25 | QEKKLSFIEALIQQYQERLDKSTK | 2.51
26 | QEKKLSFIEALIQQYQEILDKSTK | 2.08
27 | QEKKLSFIEALIQQYQEGLDKSTK | 1.95
28 | QEKKLSFIEALIQQYQENLDKSTK | 3.28
29 | QEKKLSFIEALIQQYQETLDKSTK | 2.93
30 | QEKKLSFIEALIQQYQEWLDKSTK | 3
31 | QEKKLSFIEALIQQYQEFLDKSTK | 1.98
32 | QEKKLSFIEALIQQYQEQEDKSTK | 3.41
33 | QEKKLSFIEALIQQYQEQPDKSTK | 3.26
34 | QEKKLSFIEALIQQYQEQMDKSTK | 3.18
35 | QEKKLSFIEALIQQYQEQDDKSTK | 3.77
36 | QEKKLSFIEALIQQYQEQHDKSTK | 3.54
37 | QEKKLSFIEALIQQYQEQFDKSTK | 2.38
38 | QEKKLSFIEALIQQYQEQIDKSTK | 3.19
39 | QEKKLSFIEALIQQYQEQQDKSTK | 3.21
40 | QEKKLSFIEALIQQYQEQKDKSTK | 4.08
41 | QEKKLSFIEALIQQYQEQADKSTK | 4.3
42 | QEKKLSFIEALIQQYQEQWDKSTK | 2.32
43 | QEKKLSFIEALIQQYQEQRDKSTK | 2.91
44 | QEKKLSFIEALIQQYQEQLDKSSK | 2.7
45 | QEKKLSFIEALIQQYQEQLDKSPK | 2.24
46 | QEKKLSFIEALIQQYQEQLDKSIK | 1.84
47 | QEKKLSFIEALIQQYQEQLDKSRK | 2.66
48 | QEKKLSFIEALIQQYQEQLDKSHK | 2.53

Row | Variant | protein stability index
49 | QEKKLSFIEALIQQYQEQLDKSNK | 2.31
50 | QEKKLSFIEALIQQYQEQLDKSGK | 2.77
51 | QEKKLSFIEALIQQYQEQLDKSMK | 1.92
52 | QEKKLSFIEALIQQYQEQLDKSAK | 2.75
53 | QEKKLSFIEALIQQYQEQLDKSQK | 2.89
54 | QEKKLSFIEALIQQYQEQLDKSKK | 2.49
55 | QEKKLSFIEALIQQYQEQLDKSVK | 2.67
56 | QEKKLSFIEALIQQYQEQLDKSYK | 2.26
57 | QEKKLSFIEALIQQYQEQLDKSWK | 1.09
58 | QEKKLSFIEALIQQYQEQLDKSLK | 1.51
59 | QEKKLSFIEALIQQYQEQLDKSDK | 3.33
60 | QEKKLSFIEALIQQYQEQLDKSCK | 2.72
61 | QEKKLSFIEALIQQYQEQLDKSEK | 2.57
62 | QEKKLSFIEALIQQYQEQLVKSTK | 1.2
63 | QEKKLSFIEALIQQYQEQLIKSTK | 1.31
64 | QEKKLSFIEALIQQYQEQLRKSTK | 1.77
65 | QEKKLSFIEALIQQYQEQLYKSTK | 1.48
66 | QEKKLSFIEALIQQYQEQLTKSTK | 2.47
67 | QEKKLSFIEALIQQYQEQLFKSTK | 1.66
68 | QEKKLSFIEALIQQYQEQLWKSTK | 1.83
69 | QEKKLSFIEALIQQYQEQLNKSTK | 2.08
70 | QEKKLSFIEALIQQYQEQLGKSTK | 2.13
71 | QEKKLSFIEALIQQYQEQLPKSTK | 2.46
72 | QEKKLSFIEALIQQYQEQLHKSTK | 1.77

Row | Variant | protein stability index
73 | QEKKLSFIEALIQQYQEQLCKSTK | 1.69
74 | QEKKLSFIEALIQQYQEQLMKSTK | 2.98
75 | QEKKLSFIEALIQQYQEQLQKSTK | 1.92
76 | QEKKLSFIEALIQQYQEQLLKSTK | 1.72
77 | QEKKLSFIEALIQQYQEQLAKSTK | 2.5
78 | QEKKLSFIEALIQQYQEQLDQSTK | 3
79 | QEKKLSFIEALIQQYQEQLDWSTK | 1.63
80 | QEKKLSFIEALIQQYQEQLDFSTK | 2.54
81 | QEKKLSFIEALIQQYQEQLDVSTK | 3.04
82 | QEKKLSFIEALIQQYQEQLDYSTK | 2.1
83 | QEKKLSFIEALIQQYQEQLDGSTK | 2.02
84 | QEKKLSFIEALIQQYQEQLDDSTK | 3.76
85 | QEKKLSFIEALIQQYQEQLDCSTK | 2.29
86 | QEKKLSFIEALIQQYQEQLDPSTK | 1.99
87 | QEKKLSFIEALIQQYQEQLDMSTK | 2.27
88 | QEKKLSFIEALIQQYQEQLDTSTK | 1.75
89 | QEKKLSFIEALIQQYQEQLDSSTK | 2.78
90 | QEKKLSFIEALIQQYQEQLDLSTK | 2.17
91 | QEKKLSFIEALIQQYQEQLDHSTK | 2.23
92 | QEKKLSFIEALIQQYQEQLDISTK | 2.86
93 | QEKKLSFIEALIQQYQEQLDASTK | 2.92
94 | QEKKLSFIEALIQQYQEQLDESTK | 3.26

Reference: the supplement of paper PMC10567573
